{
  "source": "paper PMC11570956",
  "test_in_all_cases": "fluorescence anisotropy",
  "key": {"eIF4A": {"test_system": "eIF4A", "settings": "20 mM HEPES-KOH pH 7.6, 200 mM KCl, 1 mM MgCl2, 25 ± 0.5 °C; 10 nM labeled RNA; co-factors 1 µM eIF4A, 1 µM eIF4E, 1 mM ATP (2.5 µM proteins also stated)"}, "eIF4B (Homo sapiens)": {"test_system": "eIF4B (Homo sapiens)", "settings": "20 mM HEPES-KOH pH 7.6, 200 mM KCl, 1 mM MgCl2, 25 ± 0.5 °C; 10 nM labeled RNA; co-factors 1 µM eIF4A, 1 µM eIF4E, 1 mM ATP (2.5 µM proteins also stated)"}, "[1]": {"test_system": "eIF4GI557-1599 (Homo sapiens)", "settings": "20 mM HEPES-KOH pH 7.6, 200 mM KCl, 1 mM MgCl2, 25 ± 0.5 °C; 10 nM labeled RNA; co-factors 1 µM eIF4A, 1 µM eIF4E, 1 mM ATP (2.5 µM proteins also stated)"}, "[2]": {"test_system": "eIF4GI557-1599;eIF4A (Homo sapiens;Homo sapiens?)", "settings": "20 mM HEPES-KOH pH 7.6, 200 mM KCl, 1 mM MgCl2, 25 ± 0.5 °C, 10 nM labeled RNA, co-factors 1 µM eIF4A, 1 µM eIF4E, 1 mM ATP (2.5 µM proteins also stated)"}, "[3]": {"test_system": "eIF4GI557-1599;eIF4A;eIF4B (Homo sapiens;;Homo sapiens)", "settings": "20 mM HEPES-KOH pH 7.6, 200 mM KCl, 1 mM MgCl2, 25 ± 0.5 °C, 10 nM labeled RNA, co-factors 1 µM eIF4A, 1 µM eIF4E, 1 mM ATP (2.5 µM proteins also stated)"}, "[4]": {"test_system": "eIF4GI557-1599;eIF4A;eIF4E (Homo sapiens;;Homo sapiens)", "settings": "20 mM HEPES-KOH pH 7.6, 200 mM KCl, 1 mM MgCl2, 25 ± 0.5 °C, 10 nM labeled RNA, co-factors 1 µM eIF4A, 1 µM eIF4E, 1 mM ATP (2.5 µM proteins also stated)"}, "[5]": {"test_system": "eIF4GI557-1599;eIF4A;eIF4E;eIF4B (Homo sapiens;Homo sapiens?;Homo sapiens;Homo sapiens)", "settings": "20 mM HEPES-KOH pH 7.6, 200 mM KCl, 1 mM MgCl2, 25 ± 0.5 °C; 10 nM labeled RNA; co-factors 1 µM eIF4A, 1 µM eIF4E, 1 mM ATP (2.5 µM proteins also stated)"}, "[6]": {"test_system": "eIF4GI557-1599;eIF4E (Homo sapiens;Homo sapiens)", "settings": "20 mM HEPES-KOH pH 7.6, 200 mM KCl, 1 mM MgCl2, 25 ± 0.5 °C; 10 nM labeled RNA; co-factors 1 µM eIF4A, 1 µM eIF4E, 1 mM ATP (2.5 µM proteins also stated)"}, "[7]": {"test_system": "eIF4GI682-1599 (Homo sapiens)", "settings": "20 mM HEPES-KOH pH 7.6, 200 mM KCl, 1 mM MgCl2, 25 ± 0.5 °C; 10 nM labeled RNA; co-factors 1 µM eIF4A, 1 µM eIF4E, 1 mM ATP (2.5 µM proteins also stated)"}, "[8]": {"test_system": "eIF4GI682-1599;eIF4A (Homo sapiens;Homo sapiens?)", "settings": "20 mM HEPES-KOH pH 7.6, 200 mM KCl, 1 mM MgCl2, 25 ± 0.5 °C; 10 nM labeled RNA; co-factors 1 µM eIF4A, 1 µM eIF4E, 1 mM ATP (2.5 µM proteins also stated)"}, "[9]": {"test_system": "eIF4GI682-1599;eIF4A;eIF4E (Homo sapiens;;Homo sapiens)", "settings": "20 mM HEPES-KOH pH 7.6, 200 mM KCl, 1 mM MgCl2, 25 ± 0.5 °C; 10 nM labeled RNA; co-factors 1 µM eIF4A, 1 µM eIF4E, 1 mM ATP (2.5 µM proteins also stated)"}, "[10]": {"test_system": "eIF4GI682-1599;eIF4E (Homo sapiens;Homo sapiens)", "settings": "20 mM HEPES-KOH pH 7.6, 200 mM KCl, 1 mM MgCl2, 25 ± 0.5 °C; 10 nM labeled RNA; co-factors 1 µM eIF4A, 1 µM eIF4E, 1 mM ATP (2.5 µM proteins also stated)"}},
  "note": "Where “and” joins values, the source holds several entries; their conditions need not be identical. Equal entries are not always repeated.",
  "data": [
    {"substance": "FGF-9 5'UTR (uncapped)", "values": [
      {"measurement": "Kd", "setting": "eIF4A", "value": "0.667 µM and 0.115 µM"},
      {"measurement": "Kd", "setting": "eIF4B (Homo sapiens)", "value": 0.038, "unit": "µM"},
      {"measurement": "Kd", "setting": "[1]", "value": 0.014, "unit": "µM"},
      {"measurement": "Kd", "setting": "[2]", "value": 0.014, "unit": "µM"},
      {"measurement": "Kd", "setting": "[2]; no nucleotide", "value": 0.016, "unit": "µM"},
      {"measurement": "Kd", "setting": "[3]", "value": 0.019, "unit": "µM"},
      {"measurement": "Kd", "setting": "[3]; AMP-PNP", "value": 0.02, "unit": "µM"},
      {"measurement": "Kd", "setting": "[3]; no nucleotide", "value": 0.024, "unit": "µM"},
      {"measurement": "Kd", "setting": "[4]", "value": 0.018, "unit": "µM"},
      {"measurement": "Kd", "setting": "[4]; ADP", "value": 0.013, "unit": "µM"},
      {"measurement": "Kd", "setting": "[4]; no nucleotide", "value": 0.015, "unit": "µM"},
      {"measurement": "Kd", "setting": "[5]", "value": 0.014, "unit": "µM"},
      {"measurement": "Kd", "setting": "[6]", "value": 0.016, "unit": "µM"},
      {"measurement": "Kd", "setting": "[7]", "value": 0.12, "unit": "µM"},
      {"measurement": "Kd", "setting": "[8]", "value": "0.026 µM and 0.016 µM"},
      {"measurement": "Kd", "setting": "[9]", "value": "0.02 µM and 0.03 µM"},
      {"measurement": "Kd", "setting": "[10]", "value": 0.11, "unit": "µM"}
    ]},
    {"substance": "HIF-1α 5'UTR (uncapped)", "values": [
      {"measurement": "Kd", "setting": "eIF4A", "value": "0.252 µM and 0.028 µM"},
      {"measurement": "Kd", "setting": "eIF4B (Homo sapiens)", "value": 0.054, "unit": "µM"},
      {"measurement": "Kd", "setting": "[1]", "value": 0.05, "unit": "µM"},
      {"measurement": "Kd", "setting": "[2]", "value": 0.013, "unit": "µM"},
      {"measurement": "Kd", "setting": "[2]; no nucleotide", "value": 0.017, "unit": "µM"},
      {"measurement": "Kd", "setting": "[3]", "value": 0.017, "unit": "µM"},
      {"measurement": "Kd", "setting": "[3]; AMP-PNP", "value": 0.014, "unit": "µM"},
      {"measurement": "Kd", "setting": "[3]; no nucleotide", "value": 0.012, "unit": "µM"},
      {"measurement": "Kd", "setting": "[4]", "value": 0.022, "unit": "µM"},
      {"measurement": "Kd", "setting": "[4]; ADP", "value": 0.026, "unit": "µM"},
      {"measurement": "Kd", "setting": "[4]; no nucleotide", "value": 0.014, "unit": "µM"},
      {"measurement": "Kd", "setting": "[5]", "value": 0.019, "unit": "µM"},
      {"measurement": "Kd", "setting": "[6]", "value": 0.015, "unit": "µM"},
      {"measurement": "Kd", "setting": "[7]", "value": 0.139, "unit": "µM"},
      {"measurement": "Kd", "setting": "[8]", "value": "0.017 µM and 0.02 µM"},
      {"measurement": "Kd", "setting": "[9]", "value": "0.021 µM and 0.016 µM"},
      {"measurement": "Kd", "setting": "[10]", "value": 0.142, "unit": "µM"}
    ]}
  ]
}
